Results on 23 sequences are retold here after the DeepSol protein solubility set.

A short description of this data set: soluble on expression in E. coli; label from the status in PepcDB or PDB records.
Regarding “MFCFLQLPYHPNSSVHISTIDRITNSGRLYQYYSAEMTAEVIDFTKRNLEEAMNHNERRLLFRRSRSEPMTLTNENITMTSRTDPEWNMTVDSISIQSSFAEYQHRRKERLKKQEAHKTSEISLSSGPSELAMKGHTDFDAAIEFLDNKMPSTLSLTDSDNSHSSNDITSSQAKEISYEDEMRLFIEKTGHLVTNVFADPFDSDERKSRTEMWVEASTENLAEGGTTSDDVPTEKELELDMENNDILAESVVGTGTGELNDEKDEETVPVGLIPPVARQSTEDSILSSNVTVNSLLKSKLTINLKEASEALSEIDIADVDRFWDYLYEKDDIQKFSDELIYPIKMEIPSTSSSERSIGIALSPIKLDFAGIHVQKTGKIEKHIKMNSNEEKDRELDEPLEITDQTVETRFFELETTKNLEKINRGTTTSEHGNILIKTTASQTPVSQEVVQLVNYEPINFTKAQSDRNFDEKENMIRAFSFKLSESFYKDLKILVVERDRAKEAMDILPAKTMKELSEECNYYQTRYRVRIEQNKEKLDRRIEEVWKKLLKMPIESQEVIDFISVAHSELLTLNARRNLPDNM”, the “soluble on expression in E. coli” value was “not soluble”. Take “SALAVEADPAADRVSSLSNVSGVLGSQWGDEGKGKLVDVLAPRFDIVARCQGGANAGHTIYNSEGKKFALHLVPSGILHEGTLCVVGNGAVIHVPGFFGEIDGLQSNGVSCDGRILVSDRAHLLFDLHQTVDGLREAELANSFIGTTKRGIGPCYSSKVTRNGLRVCDLRHMDTFGDKLDVLFEDAAARFEGFKYSKGMLKEEVERYKKFAERLEPFIADTVHVLNESIRQKKKILVEGGQATMLDIDFGTYPFVTSSSPSAGGICTGLGIAPRVIGDLIGVVKAYTTRVGSGPFPTELLGEEGDVLRKAGMEFGTTTGRPRRCGWLDIVALKYCCDINGFSSLNLTKLDVLSGLPEIKLGVSYNQMDGEKLQSFPGDLDTLEQVQVNYEVLPGWDSDISSVRSYSELPQAARRYVERIEELAGVPVHYIGVGPGRDALIYK”: the “soluble on expression in E. coli” value was “soluble”.

As to “MGSDKIHHHHHHMNMFSHINVDACKTPGCKNLGILGSPDYLPQGKNVLCRACGFLFPIISARSLNLFRQAANQPWKGLVKSCPHCGGTSLKKYGFSTKGERRMYCRQCNKTFISYTAIRSDARQENLATLIGEGASLVEIRAALAIDSTGFSRELQKLSRRANQAERDFVFPAFDIAMSTRAFRVKFNGGDSSLYVLVTAEEESGKVVAISTNYSAQPVEADYQYHSDYEERLPSGTLAHLVQRKEALTMRRNVLFDVDYGPAVLYKNDPGMLVKPVLPAYRHFELVQALTDERSLNVQHYLDHECFILGGCMMANFSYLRQGRCHISFVRERGVTPPKRDLPPRLFLSGGIRNNVWRTFSTRDYAMAVCNLTGNKKVSLLRHATLNSATAFIRYVHNHPFLPHLNRMSPGNVVAVLDYLKFEYNASRN”, the “soluble on expression in E. coli” value is “not soluble”. With “MNIQKMYTAVDVHVNGEAFRVMKDVPCKYYYSLEQLNEQFSGELAEEMKLLLNEPRGFIGLNGCIVVPSIHNEVDAAVLFFNHEGSIPLHYGGIVAVITMLLESGYLKKRESNQYKIETLSGIFLVHAYVENDEVISVSFESKLCYLIEENLQVGNVSYSLIQADKVYAVVEKGAYSPEIRVENISELKRWGEATLQAIQKQSLIKRLILVDPSQKEKNHIKSITFHEDNFIVRSPGFVSTIVSYVHALFKNDYMADKPFKNESIFNSFITVEKVKKEELGYIFRFESRGFITGMQTFLLDPTDPFPAGFLLKLEHHHHHH”, the “soluble on expression in E. coli” value is “not soluble”. To “MRKTLIALMFAAALPTVAMAMPEGHGPMGPMDGPRHSEHMRGKGPFSQLDLSREQRQQIGKLMGEQMHDRKAVVEKYLEKLSPADQKAMKDELTAKHQKTQADIRALLKPEQQKEFDTIVKKQEERRAEWAEFKAWKAQQPQKAQLEHHHHHH” belongs “soluble”.

For “MKFEYEYMETPEDLLMSLSAGFAMAMRNIATVYSYKGYLSYYTPAMSDGEELTMFVTLTKGELAPGLIDFDSENKRIEHVKKATNPEAYHFLVIRPQISTVLDKAIYDFEKSRNQP”, the “soluble on expression in E. coli” value is reported as “not soluble”.

In the case of “MSWYTSCPKMLLGATAVAVPLGATVFRRESEKSENLLKIKKAKELVETTMAIQGIPGLSIAVSLDGKMVWKSGFGYANLESFAKCTGDSVMRIASISKPITATLAAQCVENGTLDLDEDIRKYLPEFPAKKFKNEDVKITMRQLLSHSAGIRHYATEKKKSETHEDPSNNNTETPEFLSNKPYNSSLDALAIFKNDDLVEKPGSKFSYTTYGLTLAGAVLEKCSGKTYRQLANQLFSDLGMRNTQLDTKEKIVPGRASYYQRNSKNILENCPEVDCSNKFAGGGIISNTTDLLIIANAILHSILSDSKNCLLQRETIRKFLEKQVPVDSKTSTGLGWFLVDGKDLKSIDGNISNSSFFYHTGAAVGASSVLLVNTSSGVCVAILCNLQNTTVLKLGRDIGDLFHGEI”, the “soluble on expression in E. coli” value is listed as “soluble”. For “MAHHHHHHMMYTGEIENGQMHGRGCLIYPNKEKYEGDWVYGKRHGHGVYTYADGSKYDGEWVEDKVHGKGTCYYASGNRYSGDWTFGRINGRGTLEYADGDRYDGEWKDGRMHGKGLYYYSNGDRYDGEWKDDKRHGKGTVTYAGPDGSVSEKFDGDWVEGRMQGWGKYYYADGGVYEGEWQDGKMHGKGTYIFPNGNKYEGEWCDDVKQGYGVLTYVNGERYEGYWLDDKAHGTGTLTYLQGDRYTGEWYQGKKHGRGTLAYSNKDTYEGEWRNDSATGRGVLEYANGCRYEGDWLDDRRHGEGQLLLPDGSSYEGGWVNGKKEGRARIILKCGAVFVGTWKDNLIVGQGEFYLSENCDLNNPDY” the value was “soluble”. For “MGSDKIHHHHHHMFSYEKVQTLNQLELFVYKYVTSHLEECKTMTIRDLSTQSHVSSTTILRFLKKMGFEGFSDFKYVLRHRNDRTPASELSQDLGPIGQFLKQTATTEYTEKMEEVARVVAQSNTRLFFGMGSSGSMAQYGARILSNYGMLTLAITDPFQPQPISERDYSKTLIILLSVSGETEGVLTQANYYRQNGAKIVAITANSTSTLAQIADYSLTYDIPENKVGSLNFTSQIPVVYLLEQLGEKTSKLVYHPEISHEI” the value was “not soluble”; for “EFNDKYPDINIDMELDNRFVDIVNERFDLAIRTGMLPDSSLIARKLVDANWVVCASPKYLAKHGIPKQPIELTKHNCLVYSYQETGAREWAFKAGDKMYQVTVDGNLCTNNSSALRN”, “not soluble”. For “MGSDKIHHHHHHMSDAKLQSVLSSLSQVARQLDALPSDTPAPDSSWVKLNTNENPFPLPEIIMQSAIAALERQYLYPEDDNISLREAAANAYSVSMDQVIAGNGSSELLGLVYRAFLTPGDSVAMMSPGFSFNRKLATLQGAQFVEIEFSKDHSLPMEQLLFGPAKDAKFILLANPNNPTGTFVPVADIERLVAKSDRLIVLDEAYVDFAPENGLRLINRYSNLLVLRTFSKSYAAAGVRVGFGFGHPEIIGRLRNIQNVFNMNVIGQAVGISVLAHRAAYADNHRHIRHERRRVTLALSQLGFSVIPSHANFLLARVPTAQDGSWWQSAFARQKILVAVFPDKGLENYIRVSIGTKEQMDAFLRAASRISRILNMSTPPR” the value was “not soluble”. “MGSDKIHHHHHHMKDDVSAPSRYRPSIFAVPFQRHGDGTAVELLSPSEQDALIAISRLVTVRRHTVLYPEGGDARFAYNIVSGVAETYQLLPNGDKRITAFLFPRDLMGLSENGAYVATAQSLTPLVAYRIPVEALAEILERDPRLDIGLLCKLCHELRRSQHHTITVSKNEAPARLASFLVWIQHAYPEEGRAEGEVMLPMSRHDIADYLGLSVESVSRGLHVLEAQDAVRRKGPRLVTVLDPAKLRRLAGQD”: the “soluble on expression in E. coli” value was “not soluble”. To “MRAIGLLEFKEITRGVYAADVMLKATPVELLLIDNICPGKLIVLIEGEVSAVKNAISRGKEVFSEGVIEEVVLTNPHPSLSTVFPRKKQSKKLNYNSIGIIETLSVSSAIKAADKAAKGANVEIIDIKIARFLGGKAIVVLGGEISAVKVAIDAGISAVQKGKLVSSTVVANINEKLLEMWV” belongs “soluble”; to “MAKVYGSLIDNETRCTHYYSSLDVIAIKFKCCNKYYPCYKCHNEHVSHTIERWAENEFDEKAIMCGVCKHEMRIRDYMMVEMCPRCKAHFNSRCKFHYHLYFEVLEHHHHHH”, “not soluble”; to “MKKYYVRCKDSKGENASLVIEALSPEHAKEQAYEVYEVGDIYNVSLGEGKSKNCLDRKYSPYIKNDNGKAITIFSLEHHHHHH”, “not soluble”. For “MPTKVLVNATYLHSYFREWVKGNIWIHGDRIVYAGERLPDRIDESCEIIDCRGYVLVPGYIEPHVHPFQLYNPHSFARYAAMYGTTTLLNDNLFFLLQLEHHHHHH” the value was “not soluble”.

“MAHHHHHHMQDDKINSKDDISSSSSCEENDENKNILNPPNRTKMSKGERRARKMLVKLGLKAIPNVHKVIIKKSQKMVFAVSNVEVYKVEGTDSYVIFGDAKTDDITNSINNFIPENLPKDVDVPVEPEINFEAADKEEQKVKDLDDENVGDVSMDDVELIMSQTKCSRDMAISALRKNNNDFVQSIMELSG”: the “soluble on expression in E. coli” value is on record as “soluble”. For “EGGEPCACPHALHRVCGSDGETYSNPCTLNCAKFNGKPELVKVHDGPCEPDEDEDVCQECDGDEYKPVCGSDDITYDNNCRLECASISSSPGVELKHEGPCRT” the value was “soluble”; for “MGSDKIHHHHHHMCRWLAYSGRPIFLDSLVTQPSHSLVAQSLHSQLNVSSAGVLLSTNGDGFGIGWYHKRPEPGVFKDDKPAWHDENLKNLCHQVKSHIFFAHIRATTTGDVQRTNCHPFQYKNWLFQHNGHVSHFDKIRRELQLEIAPELYPHLRGTTDSETFFLLALTYGLMEQPKQAMQKMVRRVITALEGVDKAGVLNLSCALSDGEKLFILRFAHNEAAMTQFYSADTDCFHEFNGQCNPIPNGSLVVVSEPLDKASDKWTSIPTNTFTSIIKNRVHSEVFL”, “not soluble”; for “MGSDKIHHHHHHMNPIQHILDTYPLIVLDGAMATELERKGCNLNDSLWSAKILMEEPELIKQVHTDYFAAGADCAITASYQSTFEGFAARGLSEAEARRLIELSVSIAAEARDEFWSLEENRLNRPKPIIAASIGPYGAYLADGSEYRGNYAISEDELIEFHRPRMKALIEAGADVLACETIPCLTEAKAIVRLLKEFPETYAWISFSAKDGLHISDGTPAADCASWLDEHRQIAALGINCTPLQHIPSLIEELKKNTSKPIIVYPNSGEQYDPETKTWNGAACAESYGASARTWHEKGARLIGGCCRTKPENIQEIAAWARSLKTT”, “not soluble”. For “QLLEPIRDFEARKCPVHGKTMELFCQTDQTCICYLCMFQEHKNHSTVTVEEAKAEKETE” the value was “soluble”. Consider “MAAYYRWKSFEENEDRPEKPRRYGVTEMRGPHYSVLSQNLLQEIFESMGQFVDGLKFSGGSNSLIPKSFIKQAIEMAHEHGVYVSTGDWAEHMLRSGPSAFKDYVEECKQLGFDTIELNANLLEVPEETLLRYVRLIKNGGLRAKPMFAVKFNKSDIPGRNRAFGSYVVPEPRSSEFVEDIDLLIRKAERCLEAGADTIMIDADDVCKYADSLRADIIAKVIGRLGIEKTMFEASDAKLVEWFIKRYGPNVNLYVDHSQIMDLECLRGRHLGKDHQSVLSSSYFLF”, for which the “soluble on expression in E. coli” value is “soluble”.

For the sequence “MKVKIAFTTTDRIHVNAHFGWAREIDIYEISDHGYEFLETLKFEGDLKEDGSEDKITPKLEALNGCTIVYVVAIGGSAAARLIKGGVTPVKAKSEEEKIEEVLTKLVKTLKGNPPPWLRKALQPKTLNFADEVENEATV”, the “soluble on expression in E. coli” value was “not soluble”.
